The values below are quoted from earlier work in publication PMC7143316.

Some targets named below: Kv1.1 (Homo sapiens) (UniProt Q09470); Kv1.3 (Homo sapiens) (UniProt P22001); Kv1.2 (Homo sapiens) (UniProt P16389).
Sequence of UniProt P16389 (P16389 whole entry): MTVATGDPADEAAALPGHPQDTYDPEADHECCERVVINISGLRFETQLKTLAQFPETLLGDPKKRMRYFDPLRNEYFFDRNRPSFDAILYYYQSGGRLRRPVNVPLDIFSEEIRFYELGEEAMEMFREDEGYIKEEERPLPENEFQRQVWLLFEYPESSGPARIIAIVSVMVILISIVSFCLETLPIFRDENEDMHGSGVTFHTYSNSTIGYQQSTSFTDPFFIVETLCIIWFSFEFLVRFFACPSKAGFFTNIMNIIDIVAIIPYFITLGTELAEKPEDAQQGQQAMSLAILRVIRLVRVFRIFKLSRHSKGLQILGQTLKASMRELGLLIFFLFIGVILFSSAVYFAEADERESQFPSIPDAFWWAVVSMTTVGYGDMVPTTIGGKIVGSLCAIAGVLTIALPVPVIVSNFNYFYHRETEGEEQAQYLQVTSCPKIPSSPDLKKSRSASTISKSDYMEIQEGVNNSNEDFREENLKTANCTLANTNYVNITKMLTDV
Sequence of UniProt Q09470 (Q09470 whole entry): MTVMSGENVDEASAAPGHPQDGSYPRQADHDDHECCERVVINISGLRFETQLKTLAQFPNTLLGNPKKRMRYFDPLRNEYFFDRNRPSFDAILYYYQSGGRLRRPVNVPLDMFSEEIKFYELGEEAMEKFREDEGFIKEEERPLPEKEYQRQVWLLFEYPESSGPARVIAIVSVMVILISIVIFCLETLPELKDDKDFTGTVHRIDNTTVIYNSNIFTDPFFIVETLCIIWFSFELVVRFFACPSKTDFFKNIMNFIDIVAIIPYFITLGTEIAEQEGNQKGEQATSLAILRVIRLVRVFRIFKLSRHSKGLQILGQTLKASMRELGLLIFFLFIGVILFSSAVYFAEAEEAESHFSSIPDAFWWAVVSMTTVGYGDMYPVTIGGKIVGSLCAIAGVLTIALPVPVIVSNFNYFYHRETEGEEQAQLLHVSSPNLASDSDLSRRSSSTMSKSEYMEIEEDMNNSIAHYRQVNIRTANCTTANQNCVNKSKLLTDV
Sequence of UniProt P22001 (P22001 whole entry): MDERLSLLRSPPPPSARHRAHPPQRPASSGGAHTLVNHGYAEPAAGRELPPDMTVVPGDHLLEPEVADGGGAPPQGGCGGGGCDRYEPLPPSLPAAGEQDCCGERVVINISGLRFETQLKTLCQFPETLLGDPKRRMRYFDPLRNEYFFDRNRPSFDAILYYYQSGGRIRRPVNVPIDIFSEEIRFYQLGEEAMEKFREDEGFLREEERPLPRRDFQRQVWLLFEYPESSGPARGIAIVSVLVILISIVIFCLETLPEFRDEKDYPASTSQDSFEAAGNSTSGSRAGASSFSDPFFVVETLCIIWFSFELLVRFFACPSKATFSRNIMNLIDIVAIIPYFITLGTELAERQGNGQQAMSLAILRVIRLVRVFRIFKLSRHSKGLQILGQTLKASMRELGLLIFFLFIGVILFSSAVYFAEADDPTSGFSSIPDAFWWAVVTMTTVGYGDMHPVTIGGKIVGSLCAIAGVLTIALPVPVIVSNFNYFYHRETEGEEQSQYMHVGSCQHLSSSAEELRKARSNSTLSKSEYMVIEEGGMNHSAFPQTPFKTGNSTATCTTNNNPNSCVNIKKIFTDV

Take BgK (from UniProt P29186): the Kd in the data set with Kv1.1 (Homo sapiens) was 6 nM; with Kv1.3 (Homo sapiens) it was 10 nM; in the data set with Kv1.2 (Homo sapiens) it was 15 nM.
